Measured values published in patent US20020151473A1.

Biological target: IgG
Assay: microcalorimetry and surface plasmon resonance (same value stated for both)

Kd: 100 µM
Substance: cyclized (locked helix) peptide FNM(5)QQRRFY(6)ALH
